Patent US8138307

What was measured:
[1] = molecular target: GAL4 activation domain-hsyt11AB fusion encoded by pGAD10-hsyt11AB (human synaptotagmin 11, domains C2A and C2B) (human) (UniProt Q9BT88); experiment: yeast two-hybrid liquid assay (β-galactosidase, n=3)
[2] = molecular target: GFP-syt11 (GFP fusion of full-length human synaptotagmin XI) (human) [GFP: P42212]; experiment: co-immunoprecipitation with anti-HA agarose, anti-GFP blot

Chain of GAL4 activation domain-hsyt11AB fusion encoded by pGAD10-hsyt11AB (human synaptotagmin 11, domains C2A and C2B) (human) (Q9BT88 157-431 G231V): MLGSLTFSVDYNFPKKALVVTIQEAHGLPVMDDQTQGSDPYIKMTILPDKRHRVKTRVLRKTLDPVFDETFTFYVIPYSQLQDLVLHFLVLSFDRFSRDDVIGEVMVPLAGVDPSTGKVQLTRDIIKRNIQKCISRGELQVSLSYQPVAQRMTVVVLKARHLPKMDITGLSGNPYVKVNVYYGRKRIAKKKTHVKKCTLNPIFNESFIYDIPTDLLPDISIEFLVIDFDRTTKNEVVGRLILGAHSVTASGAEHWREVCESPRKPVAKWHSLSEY

fold β-galactosidase activity over pGBT9 vector control [1] [fold]	fold less interaction compared with parkinC418R [2] [fold less]	Substance
20		GAL4 binding domain-parkin(1-465) fusion encoded by pGBT9-parkin(1-465) (from UniProt P04386 1-147; O60260 1-465)
	2.5	HA-tagged missense mutated parkin C289G (from UniProt O60260 1-465) (enzyme)
